# Test results as given in patent US20030044418A1 (TEXAS A AND M UNIVERSITY SYSTEM UNIVERSITY, published 2003).
# No end group written: not given here.
# T1: rSdrG(50-597) (Staphylococcus epidermidis K28, UniProt Q9KI13 50-597)
# T1 construct: Used biotin labeled in the Western ligand blots and in the ELISAs on protease-treated Fg; also called recombinant SdrG A-region; recombinant form of the N-terminal A-region of SdrG
# T1 sequence: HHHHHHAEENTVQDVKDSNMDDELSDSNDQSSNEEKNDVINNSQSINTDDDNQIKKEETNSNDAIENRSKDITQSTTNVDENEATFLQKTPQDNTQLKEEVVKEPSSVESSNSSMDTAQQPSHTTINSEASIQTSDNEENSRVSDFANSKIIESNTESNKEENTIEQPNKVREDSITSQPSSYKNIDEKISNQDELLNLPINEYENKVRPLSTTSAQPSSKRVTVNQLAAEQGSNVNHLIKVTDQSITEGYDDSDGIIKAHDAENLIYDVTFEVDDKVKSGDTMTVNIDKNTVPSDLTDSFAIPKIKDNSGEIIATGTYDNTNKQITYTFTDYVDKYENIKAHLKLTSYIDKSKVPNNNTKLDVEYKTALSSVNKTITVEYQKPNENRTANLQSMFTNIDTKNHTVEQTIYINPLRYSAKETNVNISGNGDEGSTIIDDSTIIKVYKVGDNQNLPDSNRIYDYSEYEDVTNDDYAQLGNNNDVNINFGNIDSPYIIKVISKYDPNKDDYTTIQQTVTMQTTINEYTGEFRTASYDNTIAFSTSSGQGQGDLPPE
# Key:
# rSdrG(50-597) [1] = target: T1, rSdrG(50-597); assay: Western ligand blot, biotin labeled rSdrG(50-597)
# rSdrG(50-597) [2] = target: T1, rSdrG(50-597); assay: Western ligand blot of E. coli lysates, biotin labeled rSdrG(50-597) 0.5 µM
# rSdrG(50-597) [3] = target: T1, rSdrG(50-597); assay: inhibition ELISA, peptide varied, 50 nM rSdrG(50-597), Fg-coated wells
# rSdrG(50-597) [4] = target: T1, rSdrG(50-597); assay: Western ligand blot
# rSdrG(50-597) [5] = target: T1, rSdrG(50-597); assay: inhibition ELISA, peptide varied, 50 nM rSdrG(50-597), Fg-coated wells; reference β1-25
# rSdrG(50-597) [6] = target: T1, rSdrG(50-597); assay: fluorescence polarization, increasing rSdrG(50-597) with 10 nM fluorescein-labeled β1-25, three experiments
binder,measurement,setting,value
"rβ(25-95) (ligand, range 25-95; Expressed in E. coli; whole cell lysate on the blot; The text says it lacks the N-terminal 25 residues although the name begins at 25; not shown: N-terminal His-tag or GST fusion) EAPSLRPAPPPISGGGYRARPAKAAATQKKVERKAPDAGGCLHADPDLGVLCPTGCQLQEALLQQERPIRN",binding result,rSdrG(50-597) [1],no binding (tested: 0.5 µM)
"γ chain of Fg (ligand, Chain of native Fg on a Western ligand blot) YVATRDNCCILDERFGSYCPTTCGIADFLSTYQTKVDKDLQSLEDILHQVENKTSEVKQLIKAIQLTYNPDESSKPNMIDAATLKSRKMLEEIMKYEASILTHDSSIRYLQEIYNSNNQKIVNLKEKVAQLEAQCQEPCKDTVQIHDITGKDCQDIANKGAKQSGLYFIKPLKANQQFLVYCEIDGSGNGWTVFQKRLDGSVDFKKNWIQYKEGFGHLSPTGTTEFWLGNEKIHLISTQSAIPYALRVELEDWNGRTSTADYAMFKVGPEADKYRLTYAYFAGGDAGDAFDGFDFGDDPSDKFFTSHNGMQFSTWDNDNDKFEGNCAEQDGSGWWMNKCHAGHLNGVYYQGGTYSKASTPNGYDNGIIWATWKTRWYSMKKTTMKIIPFNRLTIGEGQQHHLGGAKQAGDV",binding result,rSdrG(50-597) [1],no binding
"rβ(1-220) (ligand, range 1-220; Expressed in E. coli; whole cell lysate on the blot; also called recombinant truncate encompassing residues 1-220; not shown: N-terminal His-tag or GST fusion) QGVNDNEEGFFSARGHRPLDKKREEAPSLRPAPPPISGGGYRARPAKAAATQKKVERKAPDAGGCLHADPDLGVLCPTGCQLQEALLQQERPIRNSVDELNNNVEAVSQTSSSSFQYMYLLKDLWQKRQKQVKDNENVVNEYSSELEKHQLYIDETVNSNIPTNLRVLRSILENLRSKIQKLESDVSAQMEYCRTPCTVSCNIPVVSGKECEEIIRKGGE",binding result,rSdrG(50-597) [2],binds
"QGVNDNEEGFFSARGHRPLDKKREE (ends and bridges not checked, Synthetic peptide (Research Genetics); also called unlabeled β1-25; synthetic 25 amino acid peptide representing the N-terminus of the Fg Bβ chain) [peptide β1-25]",binding result,rSdrG(50-597) [3],binds
"rβ(1-95) (ligand, range 1-95; Expressed in E. coli; whole cell lysate on the blot; also called recombinant truncate encompassing residues 1-95; not shown: N-terminal His-tag or GST fusion) QGVNDNEEGFFSARGHRPLDKKREEAPSLRPAPPPISGGGYRARPAKAAATQKKVERKAPDAGGCLHADPDLGVLCPTGCQLQEALLQQERPIRN",binding result,rSdrG(50-597) [2],binds
NEEGFFSARGHRPLD (Synthetic peptide made in the inventors' laboratory) [peptide β6-20],binding result,rSdrG(50-597) [3],binds
"native Bβ chain of fibrinogen (ligand, Chain of native Fg on a Western ligand blot; also called Fg Bβ chain) QGVNDNEEGFFSARGHRPLDKKREEAPSLRPAPPPISGGGYRARPAKAAATQKKVERKAPDAGGCLHADPDLGVLCPTGCQLQEALLQQERPIRNSVDELNNNVEAVSQTSSSSFQYMYLLKDLWQKRQKQVKDNENVVNEYSSELEKHQLYIDETVNSNIPTNLRVLRSILENLRSKIQKLESDVSAQMEYCRTPCTVSCNIPVVSGKECEEIIRKGGETSEMYLIQPDSSVKPYRVYCDMNTENGGWTVIQNRQDGSVDFGRKWDPYKQGFGNVATNTDGKNYCGLPGEYWLGNDKISQLTRMGPTELLIEMEDWKGDKVKAHYGGFTVQNEANKYQISVNKYRGTAGNALMDGASQLMGENRTMTIHNGMFFSTYDRDNDGWLTSDPRKQCSKEDGGGWWYNRCHAANPNGRYYWGGQYTWDMAKHGTDDGVVWMNWKGSWYSMRKMSMKIRPFFPQQ",binding result,rSdrG(50-597) [4],binds
"QGVNDNEEGFFSARGHRPLD (ends and bridges not checked, Synthetic peptide (Research Genetics)) [peptide β1-20]",binding result,rSdrG(50-597) [3],binds
NEEGFFSARGHRPLDKKREE (Synthetic peptide (Research Genetics)) [peptide β6-25],binding result,rSdrG(50-597) [3],binds
"rβ(1-195) (ligand, range 1-195; Expressed in E. coli; whole cell lysate on the blot; also called recombinant truncate encompassing residues 1-195; not shown: N-terminal His-tag or GST fusion) QGVNDNEEGFFSARGHRPLDKKREEAPSLRPAPPPISGGGYRARPAKAAATQKKVERKAPDAGGCLHADPDLGVLCPTGCQLQEALLQQERPIRNSVDELNNNVEAVSQTSSSSFQYMYLLKDLWQKRQKQVKDNENVVNEYSSELEKHQLYIDETVNSNIPTNLRVLRSILENLRSKIQKLESDVSAQMEYCRT",binding result,rSdrG(50-597) [2],binds
"rβ(1-341) (ligand, range 1-341; Expressed in E. coli; whole cell lysate on the blot; also called recombinant truncate encompassing residues 1-341; not shown: N-terminal His-tag or GST fusion) QGVNDNEEGFFSARGHRPLDKKREEAPSLRPAPPPISGGGYRARPAKAAATQKKVERKAPDAGGCLHADPDLGVLCPTGCQLQEALLQQERPIRNSVDELNNNVEAVSQTSSSSFQYMYLLKDLWQKRQKQVKDNENVVNEYSSELEKHQLYIDETVNSNIPTNLRVLRSILENLRSKIQKLESDVSAQMEYCRTPCTVSCNIPVVSGKECEEIIRKGGETSEMYLIQPDSSVKPYRVYCDMNTENGGWTVIQNRQDGSVDFGRKWDPYKQGFGNVATNTDGKNYCGLPGEYWLGNDKISQLTRMGPTELLIEMEDWKGDKVKAHYGGFTVQNEANKYQIS",binding result,rSdrG(50-597) [2],binds
QGVNDNEEGFFSAR (Bought from Bachem; also called FpB; FpB (1-14)) [fibrinopeptide B],fold less active than the synthetic peptide β1-25 as inhibitor,rSdrG(50-597) [5],10 fold
"rβ(25-195) (ligand, range 25-195; Expressed in E. coli; whole cell lysate on the blot; The text says it lacks the N-terminal 25 residues although the name begins at 25; not shown: N-terminal His-tag or GST fusion) EAPSLRPAPPPISGGGYRARPAKAAATQKKVERKAPDAGGCLHADPDLGVLCPTGCQLQEALLQQERPIRNSVDELNNNVEAVSQTSSSSFQYMYLLKDLWQKRQKQVKDNENVVNEYSSELEKHQLYIDETVNSNIPTNLRVLRSILENLRSKIQKLESDVSAQMEYCRT",binding result,rSdrG(50-597) [1],no binding (tested: 0.5 µM)
"QGVNDNEEGFFSARGHRPLDKKREE (ends and bridges not checked; also: fluorescein label, position not given here, used at 10 nM in fluorescence polarization; also called fluorescein-labeled N-terminal Bβ chain peptide β1-25; labeled peptide) [fluorescein-labeled β1-25 peptide]",Kd,rSdrG(50-597) [6],0.14 µM
